Results as given in the nanobody polyreactivity screen of Harvey et al. (2022).

Assay: yeast display, Sf9 membrane polyspecificity reagent, FACS + sequencing; frameworks hold sequencing errors
Procedure, shortened: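 Galactose induction of a Saccharomyces cerevisiae BJ5465 synthetic nanobody display library ran 36–48 hours. The cells were then stained for 1 hour at 4 °C with 10% biotinylated, detergent-solubilized Sf9 membrane reagent, pulled down on streptavidin microbeads and FACS-sorted into low and high (top ~1%) gates on expression and reagent-binding fluorescence. Labels for polyreactivity follow the gate of origin.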

Sequence	polyreactivity (PSR sort gate)
QVQLVESGGGLVQAGGSLRLSCAASGNIFYSYAMGWYRQAPGKERELVAAISSSGGRTYYADSVKGRFTISRDNAKNTVYLQMNSLKPEDTAVYYCNAYVQVLRYVFGRPTVYPYDYWGQGTQVTVSS	high polyreactivity
QVQLVESGGGLVQAGGSLRLSCAASGNIFYTNAMGWYRQAPGKERELVAAISRSGGRTYYADSVKGRFTISRDNAKNTVYLQMNSLKPEDTAVYYCAKQLYSPYKQRGYRLSPYEYWGQGTQVTVSS	low polyreactivity
QVQLVESGGGLVQAGGSLRLSCAASGNIFYVYLMGWYRQAPGKERELVASITSGASTYYADSVKGRFTISRDNAKNTVYLQMNSLKPEDTAVYYCAAEALGVAGDYSTLYIYDYWGQGTQVTVSS	low polyreactivity
QVQLVESGGGLVQAGGSLRLSCAASGNIFYYYAMGWYRQAPGKERELVADITSGGDTDYADSVKGRFTISRDNAKNTVYLQMNSLKPEDTAVYYCNAEYYFHVTYDYWGQGTQVTVSS	low polyreactivity
QVQLVESGGGLVQAGGSLRLSCAASGNIIDFYAMGWYRQAPGKERELVAAITSGGSTNFADSVKGRFTISRDNAKNTVYLQMNSLKPEDTAVYYCAARQWFSHRRWGGSRYDYWGQGTQVTVSS	high polyreactivity
QVQLVESGGGLVQAGGSLRLSCAASGNILIGNVMGWYRPAPGKERELVAAITSGGDTYYADSVKGRFTITRDNAKNTVYLQMNSLKPEDTAVYYCAADRPGQPKYEYWGQGTQVTVSS	low polyreactivity
QVQLVESGGGLVQAGGSLRLSCAASGNISPGNVMGWYRQAPGKERELVAAITISGGSTYYADSVKGRFTISRDNAKNTVYLQMNSLKPEDTAVYYCAKRTKFYYTGSGYGKYYYWGQGTQVTVSS	high polyreactivity
QVQLVESGGGLVQAGGSLRLSCAASGNLFDYYAMGWYRQAPGKERELVAAISTGTSTYADSVKGRFTISRDNAKNTVYLQMNSLKPEDTAVYYCAADVGIRPLNYHPYNYWGQGTQVTVSS	low polyreactivity
QVQLVESGGGLVQAGGSLRLSCAASGNLFYGYAMGWYRQAPGKERELVAAISGSSTYYADSVKGRFTISRDNAKYTVYLQMNSLKPEDTAVYYCAVPQYLYLQAGHGFRYYYWGQGTQVTVSS	high polyreactivity
QVQLVESGGGLVQAGGSLRLSCAASGNNFVYNPMGWYRPAPGKERELVAAIDSGGSTNYADSVKGRFTISRDNAKNTVYLQMNSLKPDDTAVYYCAADYFSTYRTIYYYWGQGTQVTVSS	low polyreactivity
QVQLVESGGGLVQAGGSLRLSCAASGNNFWWNDMGWYRHAPGKERELVAAISWRGSSTYYADSVKGRFTISRDNAKYTVYLQMNSLKPEDSAVYYCAKPDRTCWLDGDYWGQGTQVTVSS	low polyreactivity
QVQLVESGGGLVQAGGSLRLSCAASGNNFYNNAMGWYRQAPGKERELVATISRRGGRTYYADSVKGRFTISRDNAKNTVYLQMNSLKPEDTSVYYCNARFHGDYDYWGQGTQVTVSS	high polyreactivity
QVQLVESGGGLVQAGGSLRLSCAASGNNFYVYAMGWYRQATGKERELVAAIRWSGGSTYYADSVKGRFTISRDNGKNTVYLQMNSLKPEDTAVYYCAADYYLYEYEYWGQGTQVTVSS	high polyreactivity
QVQLVESGGGLVQAGGSLRLSCAASGNPFTWYTMGWYRPAPGKERDLVAVSTSDGSKYYADSVKGRFTISRDNAKNTVYLQMNSLKPEDTAVYYCNAGGGTNYGSGYWYGYYYWGQGTQVTVSS	low polyreactivity
QVQLVESGGGLVQAGGSLRLSCAASGNSFPYYDMGWYRQAPGKERELVAAITSSASGTYYADSVKGRFTISRDNAKNTVYLQMNSLKPEDNAVYYCAAGVFFFTFDYWGQGTQVTVSS	low polyreactivity
QVQLVESGGGLVQAGGSLRLSCAASGNTDVGYAMGWYRQAPGKETEFVAAISSRTGRTYYADTVKGRFTISRDNAKNTVFLQMISLKPEDTAVYYCAAVRGAPRYRYDYWGQGTQVTVSS	high polyreactivity
QVQLVESGGGLVQAGGSLRLSCAASGNTFAENAMGWYRQAPGKERELVDAISNGGTTNYADSVKGRFTISRDNAKNTVYLQMNSLKPEDTAVYYCNAKFGISQPGHSGLLKMDYWGQGTQVTVSS	low polyreactivity
QVQLVESGGGLVQAGGSLRLSCAASGNTFAQNTMGWYRQAPGKEREFVAGITFSGTGTYYADSVKGRFTISRDNAKNTVYLQMNSLKPEDTAVYYCAADTPTPGLFYWFYPHRGYWGQGTQVTVSS	low polyreactivity
QVQLVESGGGLVQAGGSLRLSCAASGNTFATYAMGWYRQAPGKERELVAAITWSGGSTYYADSVKGRFTISRDNAKNNVYLQMNSLKPEDTAVYYCAADYLYYAIPAYYWDTGYDYWGQGTQVTVSS	low polyreactivity
QVQLVESGGGLVQAGGSLRLSCAASGNTFAVNAMVWSRQAPGKERELVAAISRTGGRTYYADSVKGRFTISRDNAKNTVYLQMNSLKPEDTAVYYCAAEYYYTSQLAKYHYGYEYWGQGTQVTVSS	high polyreactivity

Sequence	polyreactivity (PSR sort gate)
QVQLVESGGGLVQAGGSLRLSCAASGNTFAYYAMGWYRQAPGKERELVAAITSTGVRTYYADSVKGRFTISRDNAKNTVYFQMNSLKPEDTAVYYCNAEYWRVWYLHYYYEYDYWGQGTQVTVSS	high polyreactivity
QVQLVESGGGLVQAGGSLRLSCAASGNTFCPYAMGWYRPAPGKERELVARISRSGSSTYYADSVKGRFTISRDNAKNTVYLQMNSLKPEDSAVYYCARGRTIRSSRTVGSWGQGTQVTVSS	high polyreactivity
QVQLVESGGGLVQAGGSLRLSCAASGNTFFIYAMGWYRPAPGKERELVAAITYSGGGTYYADSVKGRFTISRDNAKNTVYLQMYSLKPDDTAVYYCAADFYTGWSYIYDYWGHGTQVTVSS	high polyreactivity
QVQLVESGGGLVQAGGSLRLSCAASGNTFFPYTMGWYRQAPGKERELVAAITWSGVSTYYADSVKGRFTISRDNAKNTVYLQMNSLKPEDTAVYYCAAGPGYVRYPRSGVWYVTLYDYWGQGTQVTVSS	high polyreactivity
QVQLVESGGGLVQAGGSLRLSCAASGNTFGENAMGWDRQAPRKETELVAAITYGGTTNYADSVKGRFTISRDNAKNTVYLQMNSLKPEDTAVYYCNAKFGISQPGHSGLLKMDYWGQGTQVTVSS	low polyreactivity
QVQLVESGGGLVQAGGSLRLSCAASGNTFGKYGVGWYRQAPGKEREFVAAITSRGTSTYYADSVKGRFTISRDNEKNTVYLQMNSLKPEDTAVYYCNARPRYKYPRYDYWGQGTQVTVSS	high polyreactivity
QVQLVESGGGLVQAGGSLRLSCAASGNTFGLYAMGWYRQAPGKERELVATITWSVSTYADSVKGRFTISRDNAKNTVYLQMNSLKPEDTAVYYCAATTGPWYWRYDYWGQGTQVTVSS	high polyreactivity
QVQLVESGGGLVQAGGSLRLSCAASGNTFGPYDMGWYRQAPGKERELVAGITSGGSTYYADSVKGRFTISRDNAKNTVYLQMNSLKPEDTAVYYCAADYYLWVYWYDYWGQGTQVTVSS	high polyreactivity
QVQLVESGGGLVQAGGSLRLSCAASGNTFGRYAMGWSRQAPGKEREFVAAIRWRGATTYYADSVKRRFTISRDNAKNPVDLQMNSMKPEDTAVYYCAAYYWGQGTGFDYWGQGTQVTVSS	high polyreactivity
QVQLVESGGGLVQAGGSLRLSCAASGNTFIYYAMGWYRQAPGKERELVAAITWSGGSTYYADSVKGRFTISRDNAKNTVYLQMNSLKPEDTAVYYCAKFTHNYYYWGQGTQVTVSS	high polyreactivity
QVQLVESGGGLVQAGGSLRLSCAASGNTFKYYAMGWYRQAPGKERELVATISRTAGSTYYADSVKGRFTISRDNAKNTVYLQMNSLKPDDTAVYYCNKDRGHPFKYDYWGQGTQVTVSS	low polyreactivity
QVQLVESGGGLVQAGGSLRLSCAASGNTFLYYGMGWYRQAPGKERELVAAITQSGGTTYYADSVKGRCTISRDNAKNPVYLQMNSLKPEDTAVYYCAATRYYYYWYVYDDRGDYWGQGTQVTVSS	low polyreactivity
QVQLVESGGGLVQAGGSLRLSCAASGNTFPRYVMGWYRQAPGKERELVADITRRGGSTYYADSVKGRFTISRDNAKNTVYLQMNSLKPEDTAVYYCAALYLYGHQFYNDYYYWGQGTQVTVSS	high polyreactivity
QVQLVESGGGLVQAGGSLRLSCAASGNTFPTNVMGWYRQAPGKERELVAAITRSGGTTYYADSVKGRFTISRDNAKNTVYLQMNSLKPEDTAVYYCAAGPTQGWGRGYWGQGTQVTVSS	high polyreactivity
QVQLVESGGGLVQAGGSLRLSCAASGNTFRIYTMGWYRQSPGKEMELVATITRRGGSTYYADSVKGRFTISRDYAKNTVYLQMKSLKPEDTAVYYCAATTKLPRGHYWNYYWGQGTQVTVSS	high polyreactivity
QVQLVESGGGLVQAGGSLRLSCAASGNTFRIYTMVWYRQAPGKERELVATITRRGGSTYYADSVKGRFTISRDNAMNTVYLQMNSLKPEDTVVYYCAARVRGTGVYGGYNYWGQGTLVTVSS	high polyreactivity
QVQLVESGGGLVQAGGSLRLSCAASGNTFRRYAMGWYRQAPGKEREFVAAISSSGGRTYYADSVKGRFTISRDNAKNTVYVQMNSLKPEDTAVYYCNAVSYWVRGEMDYWGQGTQVTVSS	high polyreactivity
QVQLVESGGGLVQAGGSLRLSCAASGNTFRSYAMGWYRQAPGKERELVAAISSTGNTYYADSVKGRFTISRDNAKNTVYLQMNSLKPEDTAVYYCAASKWRRADYYYWGQGTQVTVSS	high polyreactivity
QVQLVESGGGLVQAGGSLRLSCAASGNTFSGTTMGWYRQAPGKERELVAAIRFTGGSTTYADSVKGRFTISRDNAKNTVYLQMNRLKPEDTAVYYCNTDWVSFRSIYHEYDYWGQGTQVTVSS	low polyreactivity
QVQLVESGGGLVQAGGSLRLSCAASGNTFSQYAMGWYRQAPGKERELVATISKSSGSTSYADSVKGRFTISRDNAKNTVYLQMNSLKPEDTAVYYCNADSSDVYHHLGVLFFSTWYDYWGQGTQVTVSS	low polyreactivity
